Measured values from IntAct's records for PubMed 24183572.

B1: Gamma-crystallin S (Homo sapiens), P22914 (parent)
chain: MSKTGTKITFYEDKNFQGRRYDCDCDCADFHTYLSRCNSIKVEGGTWAVYERPNFAGYMYILPQGEYPEYQRWMGLNDRLSSCRAVHLPSGGQYKIQIFEKGDFSGQMYETTEDCPSIMEQFHMREIHSCKVLEGVWIFYELPNYRGRQYLLDKKEYRKPIDWGAASPAVQSFRRIVE
partner: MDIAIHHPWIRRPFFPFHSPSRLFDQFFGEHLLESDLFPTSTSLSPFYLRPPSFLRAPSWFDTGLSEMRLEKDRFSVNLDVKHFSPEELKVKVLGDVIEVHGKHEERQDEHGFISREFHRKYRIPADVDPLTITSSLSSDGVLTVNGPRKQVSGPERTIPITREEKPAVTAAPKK

Variants of: B1
Details: with cryab_human CRYAB
For G18V, the “effect of a mutation on the interaction” value was “increasing interaction strength”.
